The values that follow come from patent US11912781B2, “Humanized complement 5A receptor 1 antibodies and methods of use thereof” (VISTERRA, INC., priority 2021, dated 2024).

In general, IC50 refers to the point on the concentration scale where inhibition reaches its midpoint. As a reminder, the Cmax is the maximum level reached in the sampled fluid or tissue.

Data set [1] relates to CD11b. Nature of the data set: Inhibition of CD11b expression in neutrophils. It counts as cell-based, human. The note with it: range of C5a concentrations. From the text:
CD11b, an integrin receptor, is mobilized to the surface of neutrophils in response to C5a activation and mediates intravascular crawling prior to neutrophil transmigration. CD11 is involved in numerous adhesion-related associations between cells such as monocytes, macrophages, natural killer (NK) cells, and granulocytes.
The experimental details of this determining CD11 expression are described in Example 5.

Data set [2] has as its target T1, C5aR1 (Homo sapiens, UniProt P21730).
T1 sequence (P21730 1-350): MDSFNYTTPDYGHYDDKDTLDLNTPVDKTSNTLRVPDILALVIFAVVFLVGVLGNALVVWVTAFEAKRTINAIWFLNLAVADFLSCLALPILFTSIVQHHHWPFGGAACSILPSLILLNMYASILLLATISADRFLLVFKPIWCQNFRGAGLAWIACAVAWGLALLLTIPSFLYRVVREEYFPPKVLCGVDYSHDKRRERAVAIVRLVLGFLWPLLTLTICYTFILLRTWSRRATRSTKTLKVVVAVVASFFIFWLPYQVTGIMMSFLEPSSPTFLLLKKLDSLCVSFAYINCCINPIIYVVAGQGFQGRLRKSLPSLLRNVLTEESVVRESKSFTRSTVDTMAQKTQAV
Nature of the data set: β-arrestin2 recruitment, two-subunit luciferase reporter. On the set-up: expressed in transfected cells. In kind it is cell-based. The text has this: The β-arrestin assay utilized a proprietary two-subunit luciferase reporter system: one subunit is fused to C5aR1 and one subunit is fused to β-arrestin2. When in close proximity, the two subunits formed an enzyme that generates a luminescent signal, used as a proxy for C5aR1-mediated recruitment of β-arrestin2.
The experimental details of this determining β-arrestin recruitment are described in Example 6. […] Table 14 summarizes the […] of inhibition of β-arrestin recruitment.
For orientation: Activated receptors often draw arrestin, which recruitment assays turn into a signal.

For data set [3], the system named is squirrel monkeys. Nature of the data set: C5a-induced neutropenia in squirrel monkeys. In kind it is in vivo, squirrel monkey. As to conditions: antibody 10 mg/kg or avacopan 30 mg/kg IV 1 h before 0.1 mg/kg human C5a, 1 min post-C5a. As for the experimental part:
Briefly, three groups of squirrel monkeys were evaluated for inhibition of neutropenia. In the first group, 8 squirrel monkeys were injected with PBS (vehicle), intravenously. In the second group 8 squirrel monkeys were injected with exemplary antibodies at a dose of 10 mg/kg, intravenously. In the third group, group 8 squirrel monkeys were injected with avacopan at a dose of 30 mg/kg, intravenously. One hour after injection of the PBS, exemplary antibodies or avacopan, 0.1 mg/kg of human C5a was injected into the squirrel monkeys. The blood was collected after 1 min, 5 min 15 min, 2 hr and 6 hr after injection of human C5a. The percent change in neutrophils and average change in neutrophils were calculated in all three groups and are shown in FIG. 14B, as scatter plot.

The target of data set [4] is T1, C5aR1. Kind of data set: GeneBLAzer assay, inhibition of Gα signaling. It counts as cell-based. As for the experimental part:
The GeneBLAzer assay kit and C5aR1 cell line were commercially available from Thermo Fisher (Catalog #K1544). The assay was performed as recommend by the manufacturer. Briefly, antibodies or antagonists were incubated for 30 minutes at increasing concentrations at 37° C. C5a was then added to the cells and incubated at 37° C. for an additional 4-5 hours. Beta-lactamase substrate was then added and incubated for 2 hours at room temperature. Fluorescent measurements for each well with an excitation/emission of 409/460 (blue) and 409/530 (green) were measured. An increase in the blue to green ratio was proportional to C5aR1 activation and was used to calculate the percent of activation for the cells in each well. The C5aR1 activation profile was monitored under increasing antagonist concentration. The IC50 was determined by plotting the percentage of signal against concentration of the antagonist.
This experiment was done as detailed in Example 2.

Data set [5] concerns tMCAO mice. Nature of the data set: tMCAO stroke mouse model, infarct volume. In kind it is in vivo. The note with it: antibodies 20 mg/kg, PMX53 1 mg/kg. As for the experimental part: 1 mg/kg PMX53 was used as a control. The brain was resected, cut into slices and stained with TTC. The stained cross sections were analyzed by imaging.
For data set [6], the system named is human neutrophils. Kind of data set: Binding to human neutrophils. As to conditions: two antibody preparations.
The test system of data set [7] is U937-C5aR1 cells. Nature of the data set: Binding to U937-C5aR1 cells. The note with it: two antibody preparations.
The target in data set [8] is T1, C5aR1. Nature of the data set: Binding kinetics and internalization with or without sodium azide. As to conditions: with or without 20 mM sodium azide. As for the experimental part:
The Example seeks to verify that the internalization of the C5aR1 antibodies is specific and not due to non-specific clustering of the membrane immunoglobulin. Sodium azide is a metabolic inhibitor, and inhibits internalization or endocytosis as these are energy dependent processes. Any metabolic dependency on the internalization of exemplary C5aR1 antibodies were probed using 10 nM C5aR1 antibodies in the presence or absence of 20 mM sodium azide.

Data set [9] can be described thus: Pharmacokinetics in Tg32 mice. It counts as in vivo, mouse. The note with it: 5 mg/kg IV. As for the experimental part:
(§1) 5 mg/kg of exemplary monospecific and biparatopic antibodies were injected intravenously into Tg32 mice. The amount of the antibody in the serum was evaluated over a period of 500 hours. […] FIG. 16B-16D show the stability of the anti-C5aR1 antibodies in the serum of 5 different mice for 500 hours. […] The tetravalent antibodies have slightly lower persistence in serum as compared to the monospecific antibody. Motavizumab was used as a control.
Tg32 mice are a transgenic model in which human FcRn replaces native mouse FcRn. FcRn is necessary for the bidirectional transport of Abs across cellular barriers, influencing PK. Tg32 mice with human FcRn have been extensively studied and thought to correlate with PK in humans. The goal of this experiment was to assess FcRn-mediated recycling of IgG-scFv vs IgG formats and assess any impact of introducing Fc domain modifications on FcRn mediated recycling.
5 mg/kg of exemplary monospecific and biparatopic antibodies were injected intravenously into Tg32 mice. The percentage of antibody in the serum was determined using art-recognized assays. MVZ-IgG4-VFc17, a motavizumab antibody with IgG4 Fc and same Fc modifications as the C5aR1 antibodies, was used as a control. Further PK/PD analyses were carried out using CERTARA.

Data set [10] in a line: Pharmacokinetics in human C5aR1 knock-in mice. It counts as in vivo, mouse. As to conditions: hC5aR1 mice, 20 mg/kg. As for the experimental part:
as §1
Target-Mediated Drug Disposition (TMDD) is evident for both exemplary C5aR1 antibodies with modified Fc domains. TMDD is the phenomenon in which a drug binds with high affinity to its pharmacological target site (such as a receptor) to such an extent that this affects its pharmacokinetic (PK) characteristics. The target binding and subsequent elimination of the drug-target complexes could affect both drug distribution and elimination, and result in nonlinearity of PK in a dose-dependent manner.
The target binding and subsequent elimination of the drug-target complexes could affect both drug distribution and elimination, and result in nonlinearity of PK in a dose-dependent manner. FIG. 30A-30F show antibody persistence was dose-dependent. […] FIG. 30F is in silico graphical representation of isotype control antibody over a period of 500 hours at a concentration of 20 mg/Kg. Non-naïve mice were administered multiple dosing of the mAbs once weekly over 4 total weeks.

For the molecule `Cc1ccc(NC(=O)[C@H]2CCCN(C(=O)c3c(C)cccc3F)[C@H]2c2ccc(NC3CCCC3)cc2)cc1C(F)(F)F` [Avacopan], the “inhibition of CD11b expression” value in data set [1] is reported as “only partially potent”. For the same molecule, the 50% inhibitory concentration (IC50) in data set [2] (10 nM C5a, Table 9, read-out: IC50 for β-arrestin signaling) is 9.95 nM; in data set [2] (100 nM C5a, Table 9, read-out: IC50 for β-arrestin signaling), 3.25 nM; in [2] (read-out: IC50 (nM) at 100 nM C5a, beta-arrestin inhibition, 100 nM C5a, Table 14), 34 nM; in data set [4] (read-out: IC50 (nM) 10 nM C5a, Gα signaling, 10 nM C5a, Table 13), 2.2 nM; in [4] (read-out: IC50 (nM) 100 nM C5a, Gα signaling, extrapolated data, 100 nM C5a, Table 13, extrapolated), 0.7 nM. Further, in data set [2] (C5a concentrations increase to 10 nM), the “potency in β-arrestin2 recruitment as C5a increases” value is listed as “lost potency”. Further, in data set [3], the “average reduction in neutrophil counts from baseline” value was 59%.
As for PMX53 [reference compound], the “infarct volume compared to the vehicle group” value in [5] is “only slightly reduced infarct volume”.
motavizumab [reference compound]: the “EC50 of human neutrophil binding” value in data set [6] is “No Binding”. Also, in data set [7], the “EC50 of U937-C5aR1 binding” value is reported as “No Binding”.

B1: c2139-e1711: biparatopic anti-C5aR1 antibody, VH1 SEQ ID NO: 14, VL1 SEQ ID NO: 25, VH2 SEQ ID NO: 16, VL2 SEQ ID NO: 17 (antibody, V domains shown)
VH 1: QVQLVQSGAEVKKPGASVKVSCKASGYTFTNYWMHWVRQAPGQGLEWMGYLNPSSGYTKYAQKFQGRVTMTRDTSTSTVYMELSSLRSEDTAVYYCTRSGGDNYGNPYYFDRWGQGTTVTVSS
VL 1: DVQMTQSPSSLSASVGDRVTITCRASQSIVHSNGNTYLHWYQQKPGKAPKFLIYKVSNRFSGVPSRFSGSGSGTDFTLTISSLQPEDFATYYCAQYTLVPLTFGQGTKLEIK
VH 2: EVQLVESGGGLIQPGGSLRLSCAASGFTFNAYAMSWVRQAPGKCLEWVSSISTGGNTYYADSVKGRFTISRDNSKNTLYLQMNSLRAEDTAVYYCTRGYQRFSGFAYWGQGTLVTVSS
VL 2: EIVLTQSPATLSLSPGERATLSCRSSQSLVHSNGNTYLNWYQQKPGQAPRLLIYKVSNRLSGIPARFSGSGSGTDFTLTISSLEPEDFAVYYCSQSTHVPYTFGCGTKLEIK
B1: the internalization entry in data set [8] is on record as “undergoes internalization during association”.

B2: Isotype CTL: a motavizumab antibody with IgG4 Fc and same Fc modifications as the C5aR1 antibodies, used as a control (antibody, chains of the INN, looked up, V domains shown)
VH: QVTLRESGPALVKPTQTLTLTCTFSGFSLSTAGMSVGWIRQPPGKALEWLADIWWDDKKHYNPSLKDRLTISKDTSKNQVVLKVTNMDPADTATYYCARDMIFNFYFDVWGQGTTVTVSS
VL: DIQMTQSPSTLSASVGDRVTITCSASSRVGYMHWYQQKPGKAPKLLIYDTSKLASGVPSRFSGSGSGTEFTLTISSLQPDDFATYYCFQGSGYPFTFGGGTKVEIK
modifications: IgG4 Fc modifications
notes: a motavizumab antibody with IgG4 Fc and same Fc modifications as the C5aR1 antibodies, used as a control
In data set [9] (GeoMean), B2 had an AUC0-24 of 1620 µg·h/mL, an AUCinf of 16900 µg·h/mL, an AUClast of 13100 µg·h/mL and a CL of 7.08 mL/day/kg. Also, in [9] (GeoMean), the Cmax turned out to be 131 µg/mL and the V amounted to 0.104 L/kg. Moreover, in data set [9] (Median), the t1/2 worked out at 259 h and the tlast is 504 h. In data set [10] (GeoMean), this molecule came in with an AUC0-24 of 7130 µg·h/mL, an AUCinf of 66200 µg·h/mL, an AUClast of 55800 µg·h/mL and a CL of 7.25 mL/day/kg. Besides, in data set [10] (GeoMean), the Cmax came to 453 µg/mL and the V was 0.06 L/kg. Moreover, in data set [10] (Median), the t1/2 turned out to be 127 h and the tlast is on record as 504 h.
